Experimental data: patent US20180028609A1 (UCL BUSINESS, published 2018)
Substitutions are numbered along the chain they refer to. Numbers in names are those of the source. Values belong to the binder of their own block, whether it stands above or below them.

Assays:
[1] = target: T1, human Leucine-rich alpha-2-glycoprotein 1 (Lrg1) (human, UniProt P02750 36-347, limits assumed); assay: competition ELISA: plate coated with hLrg1, dilution series of the test antibody premixed with biotinylated mouse 15C4 (0.4 µg/ml); bound biotinylated 15C4 detected with streptavidin-HRP and TMB [top graph]
T1 construct: In the western blots the native protein of conditioned medium, vitreous and serum was probed; also called human Lrg1; hLrg1
T1 sequence: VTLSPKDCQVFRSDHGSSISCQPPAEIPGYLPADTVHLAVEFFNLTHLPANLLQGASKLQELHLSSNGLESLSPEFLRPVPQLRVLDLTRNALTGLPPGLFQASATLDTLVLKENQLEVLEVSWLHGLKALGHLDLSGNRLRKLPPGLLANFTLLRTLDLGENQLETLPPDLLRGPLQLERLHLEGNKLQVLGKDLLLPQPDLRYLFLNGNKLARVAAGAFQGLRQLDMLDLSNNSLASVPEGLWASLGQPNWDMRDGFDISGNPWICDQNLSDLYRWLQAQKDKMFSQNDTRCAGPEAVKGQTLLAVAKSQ
Protocol: (§1) The chimeric antibody was expressed transiently in HEK EBNA cells and stably in NS0 mouse myeloma cells, purified and tested for binding to human Lrg1 in a competition ELISA assay. A Nunc Immuno MaxiSorp 96 well flat bottom microtitre plate (Fisher, cat. no. DIS-971-030J) was pre-coated with 0.2 μg/ml hLrg1 (supplied by UCL) overnight in 0.1 N Sodium Carbonate buffer (NaHCO₃) at +4° C. The following day the plate was washed 1× with PBST and blocked with 3% BSA/PBS for 1 hour at room temperature. After washing 3× with PB ST, a three-fold dilution series of chimeric, mouse or control antibodies from 100 μg/ml to 0.13 μg/ml was premixed with a constant concentration of biotinylated mouse 15C4 (0.4 μg/ml, final concentration), added to the plates and incubated for 1.5 hours at room temperature. Following 3×PBST washes, the binding of the biotinylated mAb was detected with streptavidin-HRP (Sigma, cat. no. 55512) and TMB substrate (Invitrogen, cat. no. 00-2023). The reaction was stopped with 3 M HCl, absorbance read at 450 nm on a Dynex Technologies MRX TC II plate reader and the binding curves plotted.

[2] = target: T1, human Leucine-rich alpha-2-glycoprotein …; assay: competition ELISA: plate coated with hLrg1, dilution series of the test antibody premixed with biotinylated mouse 15C4 (0.4 µg/ml); bound biotinylated 15C4 detected with streptavidin-HRP and TMB [bottom graph]
Protocol: as §1

[3] = target: T1, human Leucine-rich alpha-2-glycoprotein …; assay: competition ELISA on coated hLrg1; competitor biotinylated mouse 15C4 at 0.4 µg/ml
[4] = target: T1, human Leucine-rich alpha-2-glycoprotein …; assay: Biacore SPR; human Lrg1 immobilised, mAb at 20-100 nM
Protocol: The four lead mAbs were examined using Biacore, in experiments in which human Lrg1 was immobilized on the chip, and mAbs passed across at concentrations ranging from 20-100 nM. The Table below summarises the kinetic data.

[5] = target: T2, Lrg1 peptide GNKLQVLGKDLLLPQ (amino acids 221-235 of Lrg1) (human); assay: ProArray Ultra peptide microarray, fluorescent secondary antibody
T2 construct: Synthetic 15-mer of the overlapping library
T2 peptide: GNKLQVLGKDLLLPQ
Protocol: The determination of peptide-antibody binding was performed by incubation of serum or antibody samples with a ProArray Ultra® peptide microarray, followed by incubation with a fluorescent-labelled secondary antibody.
ProArray Ultra® slides were blocked using a validated blocking buffer to reduce non-specific binding of the sera. They were then incubated with test samples, followed by incubation with a specific fluorescent-labelled secondary antibody. After several washing steps, the ProArray Ultra® arrays were dried and scanned using a high-resolution fluorescence microarray scanning system.
Overlapping peptides representing LRG1 were synthesized and printed onto ProArray Ultra® microarray slides, alongside selected murine IgG controls. Slides were incubated with murine monoclonal antibody samples 4H2, 15C4 and 3A11 to identify putative epitopes. An overlapping peptide library representing Lrg1 was synthesized from the sequence provided by the sponsor. 15-mer synthetic peptides, overlapping by 10 amino acids, were generated.

[6] = target: T1, human Leucine-rich alpha-2-glycoprotein …; assay: competition ELISA: dilution series of the purified antibody against a fixed concentration of biotinylated mouse 15C4 on recombinant hLRG1; bound biotinylated 15C4 detected with streptavidin-peroxidase and TMB [bottom panel]
From the text: Top panel-Analytical size exclusion chromatography showing single peak and no aggregates. SDS-PAGE showing reduced (lane 1) and non-reduced (lane 2) antibody. Bottom panel-Anti-hLRG1 competition ELISA. A dilution series of each purified antibody was competed against a fixed concentration of biotinylated mouse 15C4 for binding to recombinant hLRG1. Bound biotinylated mouse 15C4 was detected using streptavidin-peroxidase and TMB substrate.
The properties of Magacizumab were investigated. Analytical size exclusion chromatography was conducted showing a single peak and no aggregates (FIG. 20). An anti-hLrg1 competition ELISA was carried out. A dilution series of each purified antibody was competed against a fixed concentration of biotinylated mouse 15C4 for binding to recombinant hLrg1. Bound biotinylated mouse 15C4 was detected using streptavidin-peroxidase and TMB substrate. This was an analytical step in which several humanised variants were tested against the chimeric 15C4, in order to identify those that retained the best binding characteristics.

IC50 (read off the curve) [1]: ~6 µg/mL
IC50 (read off the curve) [2]: ~3 µg/mL
IC50 fold difference against mouse 15C4 [3]: ≤ 2 fold
B1: chimeric 15C4 antibody (murine 15C4 variable regions with human IgG4 (S241P) heavy chain constant region and Kappa light chain constant region) (antibody, V domains shown)
VH: QVQLQQSGDEVVRPGSSVKISCKASGYTFSGYWMNWVKQRPGQGLQWIGQIYPGDGDTNYNGKFKGKATLTADKSSSTAYMQLSTLTSEDSAIYFCARSITTVVLDYWGQGTTLTVSS
VL: DIVLTQSPVSLAVSLGQRATISCRASQSVSTSGYSFMHWYQQKPGQPPKFLIKYASNLESGVPARFSGSGSGTDFTLNIHPVEEEDTATYYCQHSWEMPLTFGAGTKLELK
notes: Human IgG4 (S241P) heavy chain constant region and human Kappa light chain constant region; Expressed transiently in HEK EBNA cells and stably in NS0 cells; also called chimeric antibody; VH0/Vk0

Kd [4]: 1.27 pM
IC50 (read off the curve) [1]: ~5 µg/mL
binding result [5]: binds
IC50 (read off the curve) [2]: ~3 µg/mL
B2: Antibody 15C4 (mouse monoclonal antibody against human Lrg1) (antibody, V domains shown)
VH: B1 VH
VL: B1 VL
notes: Murine hybridoma antibody; also called mouse 15C4; mAb 15C4

IC50 fold difference against mouse 15C4 [3]: ≤ 2 fold
B3: control antibody VH0/Vk1 (antibody, V domains shown)
VH: B1 VH
VL: B1 VL with V9D, Q17E, N78T, H80S, P81S, V82L, E83Q, T87F, A104Q, L110I

IC50 fold difference against mouse 15C4 [3]: ≤ 2 fold
B4: control antibody VH1/Vk0 (antibody, V domains shown)
VH: B1 VH with Q5V, V12K, R13K, I20V, R40A, K67R, L70I, S76T, L114V
VL: B1 VL

binding result [6]: binds
B5: Magacizumab (humanised 15C4 antibody comprising heavy chain variable region VH5 and kappa light chain variable region VK3) (antibody, V domains shown)
VH: QVQLVQSGAEVKKPGSSVKVSCKASGYTFSGYWMNWVRQAPGQGLEWIGQIYPGDGDTNYNGKFKGRVTITADKSTSTAYMELSSLRSEDTAVYYCARSITTVVLDYWGQGTTVTVSS
VL: DIVLTQSPDSLAVSLGERATISCRASQSVSTSGYSFMHWYQQKPGQPPKLLIKYASNLESGVPARFSGSGSGTDFTLTISSLQPEDFATYYCQHSWEMPLTFGQGTKLEIK
notes: also called VH5/Vk3_3B6 clone; humanised antibody
